Kd data for one molecule are collected here from PMC4482198.

The target in the test is Angiotensin-II (Rattus norvegicus). The test is described as follows: radioligand.

B1: Angiotensin II type-1 receptor (AT1R), P25095 (protein)
chain: MALNSSAEDGIKRIQDDCPKAGRHSYIFVMIPTLYSIIFVVGIFGNSLVVIVIYFYMKLKTVASVFLLNLALADLCFLLTLPLWAVYTAMEYRWPFGNHLCKIASASVSFNLYASVFLLTCLSIDRYLAIVHPMKSRLRRTMLVAKVTCIIIWLMAGLASLPAVIHRNVYFIENTNITVCAFHYESRNSTLPIGLGLTKNILGFLFPFLIILTSYTLIWKALKKAYEIQKNKPRNDDIFRIIMAIVLFFFFSWVPHQIFTFLDVLIQLGVIHDCKISDIVDTAMPITICIAYFNNCLNPLFYGFLGKKFKKYFLQLLKYIPPKAKSHSSLSTKMSTLSYRPSDNMSSSAKKPASCFEVE
In the case of B1, the Kd was found to be 2.8 nM.

The Kd is the free concentration of one partner at which half of the binding sites on the other are occupied at equilibrium, for simple one-to-one binding.
